Reference: patent US20250122303A1, “TREATMENT AND PREVENTION OF CANCER USING HER3 ANTIGEN-BINDING MOLECULES” (Hummingbird Bioscience Pte. Ltd., priority 2021, published 2025)
“Also recorded” adds a separate entry of the source.

Key:
[1] = biological target: His-tagged human HER3 (Homo sapiens, UniProt P21860); experiment: BLI competition between anti-HER3 antibodies for binding to HER3
Method: Bio-Layer Interferometry (BLI) experiments were performed using the Octet QK384 system (ForteBio). anti-Penta-HIS (HIS1K) coated biosensor tips (ForteBio, USA) were used to capture His-tagged human HER3 (75 nM; 300 s). Binding by saturating antibody ([…]; 600 s) was detected, followed by a dissociation step (120s), followed by detection of binding with competing antibody (300 nM; 300 s), followed by a dissociation step (120s).
BLI experiments were performed as described in Example 3.5 with one alteration: 400 nM of competing antibodies were used. The variable regions of M-05-74 and M-08-11 antibodies were cloned in the PDZ vector having human IgG1 and IgKappa Fc backbone.

[2] = Toxicity in BALB/c mice (haematology, clinical chemistry, observations); format: in vivo, mouse; settings: single IP dose 1000 μg
Method: Hemotoxicity was investigated in an experiment in which 6-8 week old female BALB/c mice (20-25 g) were injected intraperitoneally with a single dose of 1000 μg anti-HER3 10D1 antibody or an equal volume of PBS. Blood samples were obtained at 96 hours post injection and analysed for numbers of different types of white blood cells by flow cytometry and electrolyte indices for NA^+, K^+, and Cl^−.
Mice were also analysed for correlates hepatotoxicity, nephrotoxicity and pancreatic toxicity at 96 hours post injection. […] Left bars represent vehicle, right bars represent 10D1 treatment, end points of the Charles River reference range indicated with dotted lines.
3 mice were injected with each treatment, 4 mice were injected with PBS control. Blood samples were obtained at 96 hours post injection and analysed for RBC indices (total RBC count, haematocrit, haemoglobin, platelet count, mean corpuscular volume, mean corpuscular haemoglobin, mean corpuscular haemoglobin concentration) and WBC indices (total WBC count, lymphocyte count, neutrophil count, monocyte count). Analysis was performed using a HM5 Hematology Analyser.
A further study was performed in the BALB/c mice to assess the toxicological effects of repeat doses of 500 μg (˜25 mg/kg) 10D1 F.FcA or 10D1F.FcB. Antibody was administered once a week for four weeks. Blood was obtained 28 days after the first administration.

[3] = biological target: human HER3 (Homo sapiens, UniProt P21860); experiment: Global affinity study, Bio-Layer Interferometry (Octet QK384); format: binding; settings: IgG1 format, 25° C.; read-out: KD
Method: The anti-HER3 antibody clones in IgG1 format were analysed for binding affinity to human HER3. Bio-Layer Interferometry (BLI) experiments were performed using the Octet QK384 system (ForteBio). anti-Human IgG Capture (AHC) Octet sensor tips (Pall ForteBio, USA) were used to anti-HER3 antibodies (25 nM). All measurements were performed at 25° C. with agitation at 1000 rpm. Kinetic measurements for antigen binding were performed by loading His-tagged human HER3 antigens at different concentrations for 120 s, followed by a 120 s dissociation time by transferring the biosensors into assay buffer containing wells. Sensograms were referenced for buffer effects and then fitted using the Octet QK384 user software (Pall ForteBio, USA). Kinetic responses were subjected to a global fitting using a one site binding model to obtain values for association (Kon), dissociation (Koff) rate constants and the equilibrium dissociation constant (KD). Only curves that could be reliably fitted with the software (R^2>0.90) were included in the analysis.
Bio-Layer Interferometry (BLI) experiments were performed using the Octet QK384 system (ForteBio). […] Binding was detected using titrated HIS-tagged human HER3 in steps of baseline (60 s), loading (120 s), baseline2 (60 s), association (120 s), dissociation (FcA 120 s, FcB 600 s) and regeneration (15 s). Sensorgrams were analysed as described in Example 3.3. […]

[4] = system: FaDu cell-line derived mouse model of head and neck squamous cell carcinoma; experiment: FaDu cell-line derived xenograft model; format: in vivo
Method: (§1) Tumor volumes were measured 3 times a week using a digital caliper and calculated using the formula [L ×W2/2]. Study End point was considered to have been reaches once the tumors of the control arm measured >1.5 cm in length.
The model was established by subcutaneous injection of 1×10^6 FaDu cells into the right flanks of female NPG mice (NOD scid gamma phenotype; n=6 mice per treatment group).
10D1 was administered IP, weekly at 500 μg per dose (for a total of 4 doses). Control treatment groups received an equal volume of PBS, or the same dose of an isotype control antibody.
The model was established by subcutaneous injection of 1×10^6 FaDu cells into the right flanks of female NCr nude mice (n=6 mice per treatment group).
10D1 was administered IP, biweekly at 500 μg per dose (for a total of 8 doses); a control treatment group received an equal volume of PBS.
(§2) Tumour cells were inserted with matrigel subcutaneously into the right flanks of female NCr nude mice.
Murine tumour efficacy studies were performed using cell-line derived xenograft (CDX) models in mice. Female NCr nude mice (5-8 weeks old, 21-29 g) were subcutaneously implanted with N87, A549, FaDu, OvCAR8 cells. Treatment was initiated when tumours reached approximately 100 to 200 mm^3. […] Tumours were measured twice per week using a calliper and tumour volume (mm^3) was calculated. […]

[5] = system: OvCAR8 cell-line derived mouse model of ovarian carcinoma; experiment: OvCAR8 cell-line derived xenograft model; format: in vivo; settings: OvCAR8, IP biweekly 500 μg, 9 doses
Method: as §1
The model was established by subcutaneous injection of 1×10^6 OvCAR8 cells into the right flanks of female NCr nude mice (n=6 mice per treatment group).
10D1 was administered IP, biweekly at 500 μg per dose (for a total of 9 doses); a control treatment group received an equal volume of PBS.
as §2
Murine tumour efficacy studies were performed using cell-line derived xenograft (CDX) models in mice. Female NCr nude mice (5-8 weeks old, 21-29 g) were subcutaneously implanted with N87, A549, FaDu, OvCAR8 cells. Treatment was initiated when tumours reached approximately 100 to 200 mm^3. Vehicle (PBS) or therapeutic antibodies (25 mg/kg) were administered intraperitoneally (IP) at indicated time points (weekly FaDu and OvCAR8, twice weekly N87 and A549). Tumours were measured twice per week using a calliper and tumour volume (mm^3) was calculated. Each data point represents the mean tumour volume ±SEM (n=8 mice).

Kd [3]: 9.58 nM
B1: 10D1: anti-HER3 antibody clone, VH SEQ ID NO:24, VL SEQ ID NO:74; [1] of Example 2.2 (antibody, V domains shown)
VH: DVQLQESGPDLVKPSQSLSLTCTVTGYSITSGYSWHWIRQFPGNKLEWMGSIHYSGGTNYNPSLKSRISITRDTSKNQFFLQLNSVTTEDTATYFCARMTTAPRYPFDYWGQGTTLTVSS
VL: DIVMTQSQKFMSTSVGDRVSVTCKASQIVGSNVAWYQQKPGQSPKPLIYSASYRYSGVPDRFTASGSGTDFTLTITNVQSEDLAEYFCQQYSSHPLTFGAGTKLELK
competition with MM-121 and/or LJM-716 for binding to HER3 [1]: not to compete; also recorded: distinct and topologically distant epitope
clinical signs, gross necroscopy or weight [2]: No differences
kidney, liver or pancreatic indices ([2]; 96 hours): no effect on the kidney, liver or pancreatic indices
numbers of different blood cell types and electrolyte indices ([2]; 96 hours): within the Charles River reference range
inhibition of tumor growth ([4]; NCr nude mice, IP biweekly 500 μg, 8 doses): ~86%
inhibition of tumor growth ([4]; NPG mice, IP weekly 500 μg, 4 doses): ~85%
inhibition of tumor growth [5]: ~74%
